Test results published in US20210038737A1.
Each block holds one substance with its values, some of them ahead of it.

Legend:
[1] = target: CAL PDZ domain (CALP5-His) (UniProt Q9HD26); assay: FP competition, condition B: probe FAM-…-OH (100 nM) with 500 nM CALP5-His; competitor titrated
[2] = target: CAL PDZ domain (CALP5-His) (UniProt Q9HD26); assay: FP competition, condition A: probe peptide 26 (50 nM) with 100 nM CALP5-His; competitor titrated
[3] = target: CAL PDZ domain (CALP5-His) (UniProt Q9HD26); assay: direct FP, condition C: 50 nM labeled peptide, CALP5-His titrated
[4] = target: CAL PDZ domain (CALP5-His) (UniProt Q9HD26); assay: FP competition
[5] = target: CAL PDZ domain (CALP5-His) (UniProt Q9HD26); assay: direct FP: 50 nM FITC-labeled peptide, PDZ domain titrated
NHERF1-PDZ1 domain = NHERF1-PDZ1 domain (UniProt O14745); assay: as above
Sequence of NHERF1-PDZ1 domain (O14745 14-94 limits assumed): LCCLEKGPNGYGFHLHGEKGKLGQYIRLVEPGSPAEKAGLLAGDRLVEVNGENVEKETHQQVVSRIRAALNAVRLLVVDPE

NHERF2-PDZ2 domain = NHERF2-PDZ2 domain (UniProt Q15599); assay: as above
Sequence of NHERF2-PDZ2 domain (Q15599 150-230 limits assumed): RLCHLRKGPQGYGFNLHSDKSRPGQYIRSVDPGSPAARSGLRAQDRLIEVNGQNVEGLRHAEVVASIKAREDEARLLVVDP

NHERF2-PDZ1 domain = NHERF2-PDZ1 domain (UniProt Q15599); assay: as above
Sequence of NHERF2-PDZ1 domain (Q15599 11-90 limits assumed): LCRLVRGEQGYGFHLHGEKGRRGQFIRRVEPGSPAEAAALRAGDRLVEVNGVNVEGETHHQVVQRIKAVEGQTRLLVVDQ

[6] = target: CAL PDZ domain (CALP5-His) (UniProt Q9HD26); assay: direct FP, ratio of KD values
[7] = target: CAL PDZ domain (CALP5-His) (UniProt Q9HD26); assay: direct FP of FITC-labeled peptides

IC50 [1]: 165 nM
Substance: peptide 20: Ac-Cys-(D-Arg)-Arg-Arg-(2-Nal)-Trp-Gln-Pen-Thr-Arg-Tle-OH

IC50 [1]: 270 nM
Substance: peptide 21: Ac-Cys-(D-Arg)-(D-Arg)-Arg-(2-Nal)-Trp-Gln-Pen-Thr-Arg-Tle-OH

IC50 [2]: 401 nM
Substance: peptide 22: Ac-Cys-Arg-(D-Arg)-Arg-(2-Nal)-Trp-Gln-Pen-Thr-Arg-Tle-OH

Kd [3]: 168 nM
Substance: peptide 23: FAM-miniPEG-Cys-(D-Arg)-Arg-Arg-(2-Nal)-Trp-Pro-Pen-Thr-Arg-Tle-OH

fold decrease in CAL binding (vs parent, printed as peptide 22) [4]: 2 fold
IC50 [1]: 380 nM
Substance: peptide 24: Ac-Cys-(D-Arg)-Arg-Arg-(2-Nal)-Trp-Pen-Tle-Thr-Arg-Tle-OH

fold more potent than peptide 24 in CAL binding [4]: 1.5 fold
IC50 [1]: 235 nM
Substance: peptide 25: Ac-Cys-(D-Arg)-Arg-Arg-(2-Nal)-(Bta)-Pen-Tle-Thr-Arg-Tle-OH

Kd [3]: 49 nM
Substance: peptide 26: FAM-miniPEG-Cys-(D-Arg)-Arg-Arg-(2-Nal)-(Bta)-Pen-Tle-Thr-Arg-Tle-OH

Kd [5]: 179 nM
Substance: peptide 27-FITC: FITC-miniPEG-Cys-(D-Arg)-Arg-Arg-Nal-Trp-Pro-Pen-Thr-Arg-Tle-OH

Kd [5]: 87 nM
Substance: peptide 28-FITC: FITC-miniPEG-Cys-(D-Arg)-Arg-Arg-Nal-Bta-Pro-Pen-Thr-Arg-Tle-OH

Kd (NHERF1-PDZ1 domain): 780 nM
Kd [5]: 6 nM
Kd (NHERF2-PDZ2 domain): 7480 nM
Kd (NHERF2-PDZ1 domain): 1370 nM
fold selectivity for CAL PDZ over NHERF1/2 PDZ domains [6]: > 130 fold
fold improvement of CAL PDZ-binding affinity (Pip for Pro, vs peptide 28) [7]: 15 fold
Substance: peptide 29-FITC: FITC-miniPEG-Cys-(D-Arg)-Arg-Arg-Nal-Bta-Pip-Pen-Thr-Arg-Tle-OH
